B1: Flag-tagged GNL3 (Flag-GNL3), wild type [human] / RAD51, endogenous [human (endogenous in U2OS and HeLa)] (parent)
chain 1: MKRPKLKKASKRMTCHKRYKIQKKVREHHRKLRKEAKKRGHKKPRKDPGVPNSAPFKEALLREAELRKQRLEELKQQQKLDRQKELEKKRKLETNPDIKPSNVEPMEKEFGLCKTENKAKSGKQNSKKLYCQELKKVIEASDVVLEVLDARDPLGCRCPQVEEAIVQSGQKKLVLILNKSDLVPKENLESWLNYLKKELPTVVFRASTKPKDKGKITKRVKAKKNAAPFRSEVCFGKEGLWKLLGGFQETCSKAIRVGVIGFPNVGKSSIINSLKQEQMCNVGVSMGLTRSMQVVPLDKQITIIDSPSFIVSPLNSSSALALRSPASIEVVKPMEAASAILSQADARQVVLKYTVPGYRNSLEFFTVLAQRRGMHQKGGIPNVEGAAKLLWSEWTGASLAYYCHPPTSWTPPPYFNESIVVDMKSGFNLEELEKNNAQSIRAIKGPHLANSILFQSSGLTNGIIEEKDIHEELPKRKERKQEEREDDKDSDQETVDEEVDENSSGMFAAEETGEALSEETTAGEQSTRSFILDKIIEEDDAYDFSTDYV
chain 2: MAMQMQLEANADTSVEEESFGPQPISRLEQCGINANDVKKLEEAGFHTVEAVAYAPKKELINIKGISEAKADKILAEAAKLVPMGFTTATEFHQRRSEIIQITTGSKELDKLLQGGIETGSITEMFGEFRTGKTQICHTLAVTCQLPIDRGGGEGKAMYIDTEGTFRPERLLAVAERYGLSGSDVLDNVAYARAFNTDHQTQLLYQASAMMVESRYALLIVDSATALYRTDYSGRGELSARQMHLARFLRMLLRLADEFGVAVVITNQVVAQVDGAAMFAADPKKPIGGNIIAHASTTRLYLRKGRGETRICKIYDSPCLPEAEAMFAINADGVGDAKD

Variants of: B1
Assay: co-IP (anti-Flag IP, IB RAD51, band quantification)
Details: with RAD51, endogenous [human (endogenous in U2OS and HeLa)]; U2OS cells; 20 μM ETO, 0 h; read off a plot

Row | response (relative level) | Variant
1 | 0.17 | chain 1 K196R

Same assay, conditions: with RAD51, endogenous [human (endogenous in U2OS and HeLa)]; U2OS cells; 20 μM ETO, 2 h; read off a plot

Row | response (relative level) | Variant
2 | 0.52 | chain 1 K196R

Same assay, conditions: with RAD51, endogenous [human (endogenous in U2OS and HeLa)]; U2OS cells; 20 μM ETO, 8 h; read off a plot

Row | response (relative level) | Variant
3 | 0.31 | chain 1 K196R

Reference: article PMC13598120
